Reference: the supplement of paper PMC9233669
This sample holds only a part of the variants without activity.

Columns and labels:
[1] = tested on: biotinyl-Phe-oxazolone; test: self-aminoacylation, catalytic enhancement (BFO) (fold over background); higher = more active; k-Seq, kA / k0A0; sequences stand for … in GGGAAUGGAUCCACAUCUACGAAUUC…UUCACUGCAGACUUGACGAAGCUG
Outline: (§1)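 Catalytic enhancement equals the median kA over the uncatalyzed rate, the latter read from the low-activity peak of a bimodal Gaussian fit. Values of kA came from fitting each sequence's fraction reacted to a pseudo-first-order model, with 1000 bootstraps. Reacted RNA was captured with streptavidin and quantified by triplicate qPCR and Illumina sequencing after 90 minutes at room temperature with 2–1250 μM biotinyl-aminoacyl-oxazolone and 0.43 μM mutagenized RNA pools bearing a 21-nt variable region.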

[2] = tested on: biotinyl-Ile-oxazolone; test: self-aminoacylation, catalytic enhancement (BIO) (fold over background); higher = more active; k-Seq, kA / k0A0; sequences stand for … in GGGAAUGGAUCCACAUCUACGAAUUC…UUCACUGCAGACUUGACGAAGCUG
Outline: as §1

[3] = tested on: biotinyl-Met-oxazolone; test: self-aminoacylation, catalytic enhancement (BMO) (fold over background); higher = more active; k-Seq, kA / k0A0; sequences stand for … in GGGAAUGGAUCCACAUCUACGAAUUC…UUCACUGCAGACUUGACGAAGCUG
Outline: as §1

[4] = tested on: biotinyl-Val-oxazolone; test: self-aminoacylation, catalytic enhancement (BVO) (fold over background); higher = more active; k-Seq, kA / k0A0; sequences stand for … in GGGAAUGGAUCCACAUCUACGAAUUC…UUCACUGCAGACUUGACGAAGCUG
Outline: as §1

[5] = tested on: biotinyl-Leu-oxazolone; test: self-aminoacylation, catalytic enhancement (BLO) (fold over background); higher = more active; k-Seq, kA / k0A0; sequences stand for … in GGGAAUGGAUCCACAUCUACGAAUUC…UUCACUGCAGACUUGACGAAGCUG
Outline: as §1

[6] = tested on: biotinyl-Trp-oxazolone; test: self-aminoacylation, catalytic enhancement (BWO) (fold over background); higher = more active; k-Seq, kA / k0A0; sequences stand for … in GGGAAUGGAUCCACAUCUACGAAUUC…UUCACUGCAGACUUGACGAAGCUG
Outline: as §1

Sequence | self-aminoacylation [1] | self-aminoacylation [2] | self-aminoacylation [3] | self-aminoacylation [4] | self-aminoacylation [5] | self-aminoacylation [6]
CUAAUUCAAACAAUCGAUCUG [Fam1A.1 aminoacylation ribozyme variant] | 0.72 | 0.604 | 0.43 | 0.561 | 0.544 | 0.361
AAGUUUACUAAUAGUCACAAG [Fam3.1 aminoacylation ribozyme variant] | 2.55 | 1.74 | 1.33 | 1.44 | 1.33 | 1.39
CUUACCCUGUUCAUCGAGUGA [Fam2.1 aminoacylation ribozyme variant] | 7.83 | 2.29 | 4.32 | 2.86 | 4.33 | 6.94
CCACGUUUCAAGCAAUCGGUC [Fam1B.1 aminoacylation ribozyme variant] | 77.2 | 2.68 | 2.85 | 3.47 | 3.36 | 37.6
AUUACCCUGCUCGUCGAGUGA [Fam2.1 aminoacylation ribozyme variant] | 0.752 | 0.725 | 0.533 | 0.766 | 0.689 | 0.43
AUUACCCUGGUCGGCGAGUGA [Fam2.1 aminoacylation ribozyme variant] | 53.6 | 5.39 | 7.37 | 5.03 | 9.02 | 8.06
AUUACCCUGGUCAUCGAGUGG [Fam2.1 aminoacylation ribozyme variant] | 361 | 16.3 | 56.9 | 18.5 | 55.4 | 52.1
AUUCUCCUAGGUUAUCGGGUG [Fam2.2 aminoacylation ribozyme variant] | 40.2 | 4.08 | 6.52 | 3.88 | 8.02 | 6.28
AUUCACCUACGCCAUCGGGUG [Fam2.2 aminoacylation ribozyme variant] | 21.9 | 2.1 | 3.6 | 2.11 | 4.34 | 3.52
AAUACCCUGGUGAUCGAGUGA [Fam2.1 aminoacylation ribozyme variant] | 13.1 | 3.23 | 5.35 | 3.02 | 6.6 | 6.66
AAGUUCGCUAAUAAUCGCAAG [Fam3.1 aminoacylation ribozyme variant] | 1.54 | 1.24 | 1.24 | 1.31 | 1.02 | 0.758
CCACCCUUCAAGGAAUCGGUC [Fam1B.1 aminoacylation ribozyme variant] | 3.31 | 1.36 | 1.34 | 1.32 | 1.27 | 4
ACUCACCUGGGUCAUCGGGUG [Fam2.2 aminoacylation ribozyme variant] | 38.9 | 4.86 | 4.83 | 4.66 | 5.61 | 8.05
AUUCACCUAGGUCAUCAGGGG [Fam2.2 aminoacylation ribozyme variant] | 0.986 | 1.22 | 0.955 | 1.22 | 1.32 | 0.985
AUCCACCUAGGUCAUUGGGUG [Fam2.2 aminoacylation ribozyme variant] | 24.6 | 3.51 | 3.76 | 3.24 | 3.86 | 3.8
AUCACCCUGGUGAUCGAGUGA [Fam2.1 aminoacylation ribozyme variant] | 54.1 | 3.57 | 7.25 | 3.87 | 8.91 | 8.41
AUUGCCCUGGUCAUCGAGUGU [Fam2.1 aminoacylation ribozyme variant] | 448 | 18.4 | 64.6 | 23.4 | 62.2 | 65.7
CUACCUCAAACACUCGGUCUG [Fam1A.1 aminoacylation ribozyme variant] | 1.74 | 1.22 | 1.08 | 1.6 | 1.31 | 1.93
CCACACGUCAAGCACUCGGUC [Fam1B.1 aminoacylation ribozyme variant] | 2.16 | 1.17 | 1.13 | 2.17 | 1.23 | 1.1
UUUCACCUAGGUCAUCGGGUU [Fam2.2 aminoacylation ribozyme variant] | 44.3 | 6.15 | 10.4 | 5.7 | 12.6 | 7.39
CCACGCUUCAAGCAAUCGGUG [Fam1B.1 aminoacylation ribozyme variant] | 5.52 | 2.49 | 3.73 | 2.41 | 5.09 | 4.43
ACUCACCUAGGCCAUCGGGUG [Fam2.2 aminoacylation ribozyme variant] | 34.2 | 4.74 | 4.87 | 6.46 | 5.87 | 5.91
AUGUCCCUGGUCAUCGAGUGA [Fam2.1 aminoacylation ribozyme variant] | 246 | 15.1 | 44.2 | 17.2 | 40.9 | 41.4
GCACACUUCAAGCAAUCGGCC [Fam1B.1 aminoacylation ribozyme variant] | 4.88 | 3.36 | 2.99 | 3.45 | 3.49 | 6.96
AAUACCGUGGUCAUCGAGUGA [Fam2.1 aminoacylation ribozyme variant] | 26.4 | 2.89 | 5.12 | 2.81 | 4.83 | 5.14
AAGUUUGCUAAAAGUCGGAAG [Fam3.1 aminoacylation ribozyme variant] | 5.57 | 0.814 | 0.755 | 0.924 | 0.778 | 1.22

Sequence | self-aminoacylation [1] | self-aminoacylation [2] | self-aminoacylation [3] | self-aminoacylation [4] | self-aminoacylation [5] | self-aminoacylation [6]
CAACAAUUCAAGCAAUCGGUC [Fam1B.1 aminoacylation ribozyme variant] | 1.71 | 1.16 | 1.1 | 0.937 | 1.01 | 1.31
CUACUUCAAACAAUAGGUCAG [Fam1A.1 aminoacylation ribozyme variant] | 1.19 | 0.688 | 0.602 | 0.812 | 0.577 | 0.568
AAGUUGGCGAAUAGUCGCAAG [Fam3.1 aminoacylation ribozyme variant] | 2.86 | 1.78 | 1.64 | 1.78 | 1.51 | 2.72
CUACUUCAAACAAUAGGUCUA [Fam1A.1 aminoacylation ribozyme variant] | 0.832 | 0.755 | 0.699 | 0.776 | 0.639 | 0.756
AGUACCCUGGUCAUGGAGUGA [Fam2.1 aminoacylation ribozyme variant] | 11 | 2.31 | 2.7 | 2.27 | 3.1 | 2.82
AUUAGCCUGGUCAUCGAGAGA [Fam2.1 aminoacylation ribozyme variant] | 1.49 | 1.63 | 1.08 | 1.25 | 1.43 | 1.35
CUACUUCAAACAAUCUGGCUG [Fam1A.1 aminoacylation ribozyme variant] | 0.69 | 0.963 | 0.844 | 0.963 | 1.02 | 0.664
CUACUUCACACAAUCGUUCUG [Fam1A.1 aminoacylation ribozyme variant] | 0.66 | 0.649 | 0.477 | 0.61 | 0.484 | 0.392
CCACGCUUCAAGCAAACGGUC [Fam1B.1 aminoacylation ribozyme variant] | 0.644 | 0.647 | 0.457 | 0.665 | 0.477 | 0.544
CUACUGCUAACAAUCGGUCUG [Fam1A.1 aminoacylation ribozyme variant] | 0.437 | 0.538 | 0.491 | 0.559 | 0.597 | 0.418
AUUACCCGGGUCAUCGAAUGA [Fam2.1 aminoacylation ribozyme variant] | 0.592 | 1 | 0.972 | 1.29 | 1.25 | 0.515
AAGUUUGCUAAUGGUCGAAAG [Fam3.1 aminoacylation ribozyme variant] | 1.03 | 0.687 | 0.723 | 0.897 | 0.591 | 0.713
AAGUUUGCGAAUGGUCGCAAG [Fam3.1 aminoacylation ribozyme variant] | 5.78 | 0.908 | 0.97 | 1.11 | 0.728 | 1.47
ACUACCCUGGUCUUCGAGUGA [Fam2.1 aminoacylation ribozyme variant] | 11.5 | 2.45 | 4.26 | 2.72 | 4.54 | 5.15
CCACACAGCAAGCAAUCGGUC [Fam1B.1 aminoacylation ribozyme variant] | 1.35 | 0.864 | 0.699 | 1.11 | 0.787 | 0.608
CCAGACUUCAACCAAUCGGUC [Fam1B.1 aminoacylation ribozyme variant] | 51.2 | 1.39 | 1.63 | 1.72 | 2.1 | 31.4
AAGUUUGCUAAUAGUCGCACC [Fam3.1 aminoacylation ribozyme variant] | 1.29 | 0.81 | 0.569 | 0.756 | 0.718 | 0.849
AUCCCCCUAGGUCAUCGGGUG [Fam2.2 aminoacylation ribozyme variant] | 132 | 8.62 | 13.3 | 8.74 | 17.6 | 12.6
CAACUUCAAACAAUCGUUCUG [Fam1A.1 aminoacylation ribozyme variant] | 1.83 | 0.675 | 0.624 | 0.734 | 0.728 | 1.03
AUUACACUGGUCAUCGAGUUA [Fam2.1 aminoacylation ribozyme variant] | 0.876 | 1.18 | 1.05 | 1.02 | 1.09 | 1.38
CCACCCUACAAGCAAUCGGUC [Fam1B.1 aminoacylation ribozyme variant] | 0.931 | 1.36 | 1.3 | 1.17 | 1.19 | 1.16
AUUAACCCGGUCAUCGAGUGA [Fam2.1 aminoacylation ribozyme variant] | 54.5 | 3.71 | 7.21 | 4.15 | 7.87 | 9.1
ACUAGCCUGGUCAUCGAGUGA [Fam2.1 aminoacylation ribozyme variant] | 30.2 | 3.66 | 4.28 | 3.68 | 4.72 | 5.21
AUUCGCCUAGGUCAUCCGGUG [Fam2.2 aminoacylation ribozyme variant] | 78.7 | 6.5 | 7.99 | 6.7 | 10.9 | 10.3
CCACACUUCAAGAAAUCGCUC [Fam1B.1 aminoacylation ribozyme variant] | 0.492 | 1.13 | 1.14 | 1.05 | 0.886 | 0.881
